# Test results published in IntAct's records for PubMed 35512704.
# B1: Speckle-type POZ protein (Homo sapiens), O43791 (parent)
# chain: MSRVPSPPPPAEMSSGPVAESWCYTQIKVVKFSYMWTINNFSFCREEMGEVIKSSTFSSGANDKLKWCLRVNPKGLDEESKDYLSLYLLLVSCPKSEVRAKFKFSILNAKGEETKAMESQRAYRFVQGKDWGFKKFIRRDFLLDEANGLLPDDKLTLFCEVSVVQDSVNISGQNTMNMVKVPECRLADELGGLWENSRFTDCCLCVAGQEFQAHKAILAARSPVFSAMFEHEMEESKKNRVEINDVEPEVFKEMMCFIYTGKAPNLDKMADDLLAAADKYALERLKVMCEDALCSNLSVENAAEILILADLHSADQLKTQAVDFINYHASDVLETSGWKSMVVSHPHLVAEAYRSLASAQCPFLGPPRKRLKQS
# partner: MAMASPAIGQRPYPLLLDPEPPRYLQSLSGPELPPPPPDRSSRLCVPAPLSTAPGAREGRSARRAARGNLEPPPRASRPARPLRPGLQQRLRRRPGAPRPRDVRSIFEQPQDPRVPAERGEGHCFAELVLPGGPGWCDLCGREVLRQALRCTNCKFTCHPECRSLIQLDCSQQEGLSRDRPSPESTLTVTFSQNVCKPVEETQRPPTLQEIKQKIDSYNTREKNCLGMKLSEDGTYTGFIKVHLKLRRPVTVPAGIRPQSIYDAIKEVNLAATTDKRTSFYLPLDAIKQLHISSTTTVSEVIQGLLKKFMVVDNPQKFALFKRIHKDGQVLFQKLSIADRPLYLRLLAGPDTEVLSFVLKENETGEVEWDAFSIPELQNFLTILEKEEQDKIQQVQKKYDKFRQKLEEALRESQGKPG
# B2: Speckle-type POZ protein (Homo sapiens), O43791 (parent)
# chain: B1 chain
# partner: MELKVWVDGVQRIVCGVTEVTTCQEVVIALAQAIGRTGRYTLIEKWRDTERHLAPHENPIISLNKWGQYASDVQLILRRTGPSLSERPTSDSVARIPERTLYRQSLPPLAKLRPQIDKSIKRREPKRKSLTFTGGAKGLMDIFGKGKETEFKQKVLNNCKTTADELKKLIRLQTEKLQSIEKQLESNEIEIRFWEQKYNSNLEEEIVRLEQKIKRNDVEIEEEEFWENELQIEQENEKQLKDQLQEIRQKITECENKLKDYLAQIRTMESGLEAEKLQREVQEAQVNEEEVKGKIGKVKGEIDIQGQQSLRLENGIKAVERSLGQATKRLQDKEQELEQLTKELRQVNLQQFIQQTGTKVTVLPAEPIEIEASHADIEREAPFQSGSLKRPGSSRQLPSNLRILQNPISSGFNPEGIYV
# Variants of: B1
# Conditions: with rasf5_human RASSF5, Q8WWW0
row,Variant,effect of a mutation on the interaction
1,MSRVPSPPPPAEMSSGPVAESWCYTQIKVVKFSYMWTINNFSFCREEMGEVIKSSTFSSGANDKLKWCLRVNPKGLDEESKDYLSLCLLLVSCPKSEVRAKFKFSILNAKGEETKAMESQRAYRFVQGKDWGFKKFIRRDFLLDEANGLLPDDKLTLFCEVSVVQDSVNISGQNTMNMVKVPECRLADELGGLWENSRFTDCCLCVAGQEFQAHKAILAARSPVFSAMFEHEMEESKKNRVEINDVEPEVFKEMMCFIYTGKAPNLDKMADDLLAAADKYALERLKVMCEDALCSNLSVENAAEILILADLHSADQLKTQAVDFINYHASDVLETSGWKSMVVSHPHLVAEAYRSLASAQCPFLGPPRKRLKQS [Y87C],with no effect

# Variants of: B1
# Conditions: with rasf5_human RASSF5, Q8WWW0
# Remark: another data set of the same source
row,Variant,effect of a mutation on the interaction
1,MSRVPSPPPPAEMSSGPVAESWCYTQIKVVKFSYMWTINNFSFCREEMGEVIKSSTFSSGANDKLKWCLRVNPKGLDEESKDYLSLYLLLVSCPKSEVRAKFKFSILNAKGEETKAMESQRAYRFVQGKDWGLKKFIRRDFLLDEANGLLPDDKLTLFCEVSVVQDSVNISGQNTMNMVKVPECRLADELGGLWENSRFTDCCLCVAGQEFQAHKAILAARSPVFSAMFEHEMEESKKNRVEINDVEPEVFKEMMCFIYTGKAPNLDKMADDLLAAADKYALERLKVMCEDALCSNLSVENAAEILILADLHSADQLKTQAVDFINYHASDVLETSGWKSMVVSHPHLVAEAYRSLASAQCPFLGPPRKRLKQS [F133L],with no effect

# Variants of: B1
# Conditions: with rasf5_human RASSF5, Q8WWW0
# Remark: another data set of the same source
row,Variant,effect of a mutation on the interaction
1,MSRVPSPPPPAEMSSGPVAESWCYTQIKVVKFSYMWTINNFSFCREEMGEVIKSSTFSSGANDKLKWCLRVNPKGLDEESKDYLSLYLLLVSCPKSEVRAKFKFSILNAKGEETKAMESQRAYRFVQGKDWGVKKFIRRDFLLDEANGLLPDDKLTLFCEVSVVQDSVNISGQNTMNMVKVPECRLADELGGLWENSRFTDCCLCVAGQEFQAHKAILAARSPVFSAMFEHEMEESKKNRVEINDVEPEVFKEMMCFIYTGKAPNLDKMADDLLAAADKYALERLKVMCEDALCSNLSVENAAEILILADLHSADQLKTQAVDFINYHASDVLETSGWKSMVVSHPHLVAEAYRSLASAQCPFLGPPRKRLKQS [F133V],with no effect

# Variants of: B1
# Conditions: with rasf5_human RASSF5, Q8WWW0
# Remark: another data set of the same source
row,Variant,effect of a mutation on the interaction
1,MSRVPSPPPPAEMSSGPVAESWCYTQIKVVKFSYMWTINNFSFCREEMGEVIKSSTFSSGANDKLKWCLRVNPKGLDEESKDYLSLYLLLVSCPKSEVRAKCKFSILNAKGEETKAMESQRAYRFVQGKDWGFKKFIRRDFLLDEANGLLPDDKLTLFCEVSVVQDSVNISGQNTMNMVKVPECRLADELGGLWENSRFTDCCLCVAGQEFQAHKAILAARSPVFSAMFEHEMEESKKNRVEINDVEPEVFKEMMCFIYTGKAPNLDKMADDLLAAADKYALERLKVMCEDALCSNLSVENAAEILILADLHSADQLKTQAVDFINYHASDVLETSGWKSMVVSHPHLVAEAYRSLASAQCPFLGPPRKRLKQS [F102C],with no effect

# Variants of: B2
# Conditions: with rasf8_human RASSF8, Q8NHQ8
row,Variant,effect of a mutation on the interaction
1,MSRVPSPPPPAEMSSGPVAESWCYTQIKVVKFSYMWTINNFSFCREEMGEVIKSSTFSSGANDKLKWCLRVNPKGLDEESKDYLSLCLLLVSCPKSEVRAKFKFSILNAKGEETKAMESQRAYRFVQGKDWGFKKFIRRDFLLDEANGLLPDDKLTLFCEVSVVQDSVNISGQNTMNMVKVPECRLADELGGLWENSRFTDCCLCVAGQEFQAHKAILAARSPVFSAMFEHEMEESKKNRVEINDVEPEVFKEMMCFIYTGKAPNLDKMADDLLAAADKYALERLKVMCEDALCSNLSVENAAEILILADLHSADQLKTQAVDFINYHASDVLETSGWKSMVVSHPHLVAEAYRSLASAQCPFLGPPRKRLKQS [Y87C],with no effect

# Variants of: B2
# Conditions: with rasf8_human RASSF8, Q8NHQ8
# Remark: another data set of the same source
row,Variant,effect of a mutation on the interaction
1,MSRVPSPPPPAEMSSGPVAESWCYTQIKVVKFSYMWTINNFSFCREEMGEVIKSSTFSSGANDKLKWCLRVNPKGLDEESKDYLSLYLLLVSCPKSEVRAKCKFSILNAKGEETKAMESQRAYRFVQGKDWGFKKFIRRDFLLDEANGLLPDDKLTLFCEVSVVQDSVNISGQNTMNMVKVPECRLADELGGLWENSRFTDCCLCVAGQEFQAHKAILAARSPVFSAMFEHEMEESKKNRVEINDVEPEVFKEMMCFIYTGKAPNLDKMADDLLAAADKYALERLKVMCEDALCSNLSVENAAEILILADLHSADQLKTQAVDFINYHASDVLETSGWKSMVVSHPHLVAEAYRSLASAQCPFLGPPRKRLKQS [F102C],with no effect

# Variants of: B2
# Conditions: with rasf8_human RASSF8, Q8NHQ8
# Remark: another data set of the same source
row,Variant,effect of a mutation on the interaction
1,MSRVPSPPPPAEMSSGPVAESWCYTQIKVVKFSYMWTINNFSFCREEMGEVIKSSTFSSGANDKLKWCLRVNPKGLDEESKDYLSLYLLLVSCPKSEVRAKFKFSILNAKGEETKAMESQRAYRFVQGKDWGLKKFIRRDFLLDEANGLLPDDKLTLFCEVSVVQDSVNISGQNTMNMVKVPECRLADELGGLWENSRFTDCCLCVAGQEFQAHKAILAARSPVFSAMFEHEMEESKKNRVEINDVEPEVFKEMMCFIYTGKAPNLDKMADDLLAAADKYALERLKVMCEDALCSNLSVENAAEILILADLHSADQLKTQAVDFINYHASDVLETSGWKSMVVSHPHLVAEAYRSLASAQCPFLGPPRKRLKQS [F133L],with no effect

# Variants of: B2
# Conditions: with rasf8_human RASSF8, Q8NHQ8
# Remark: another data set of the same source
row,Variant,effect of a mutation on the interaction
1,MSRVPSPPPPAEMSSGPVAESWCYTQIKVVKFSYMWTINNFSFCREEMGEVIKSSTFSSGANDKLKWCLRVNPKGLDEESKDYLSLYLLLVSCPKSEVRAKFKFSILNAKGEETKAMESQRAYRFVQGKDWGVKKFIRRDFLLDEANGLLPDDKLTLFCEVSVVQDSVNISGQNTMNMVKVPECRLADELGGLWENSRFTDCCLCVAGQEFQAHKAILAARSPVFSAMFEHEMEESKKNRVEINDVEPEVFKEMMCFIYTGKAPNLDKMADDLLAAADKYALERLKVMCEDALCSNLSVENAAEILILADLHSADQLKTQAVDFINYHASDVLETSGWKSMVVSHPHLVAEAYRSLASAQCPFLGPPRKRLKQS [F133V],with no effect
